Key:
[1] = biological target: T1, periostin (Homo sapiens) (UniProt Q15063); test: filter
T1 sequence: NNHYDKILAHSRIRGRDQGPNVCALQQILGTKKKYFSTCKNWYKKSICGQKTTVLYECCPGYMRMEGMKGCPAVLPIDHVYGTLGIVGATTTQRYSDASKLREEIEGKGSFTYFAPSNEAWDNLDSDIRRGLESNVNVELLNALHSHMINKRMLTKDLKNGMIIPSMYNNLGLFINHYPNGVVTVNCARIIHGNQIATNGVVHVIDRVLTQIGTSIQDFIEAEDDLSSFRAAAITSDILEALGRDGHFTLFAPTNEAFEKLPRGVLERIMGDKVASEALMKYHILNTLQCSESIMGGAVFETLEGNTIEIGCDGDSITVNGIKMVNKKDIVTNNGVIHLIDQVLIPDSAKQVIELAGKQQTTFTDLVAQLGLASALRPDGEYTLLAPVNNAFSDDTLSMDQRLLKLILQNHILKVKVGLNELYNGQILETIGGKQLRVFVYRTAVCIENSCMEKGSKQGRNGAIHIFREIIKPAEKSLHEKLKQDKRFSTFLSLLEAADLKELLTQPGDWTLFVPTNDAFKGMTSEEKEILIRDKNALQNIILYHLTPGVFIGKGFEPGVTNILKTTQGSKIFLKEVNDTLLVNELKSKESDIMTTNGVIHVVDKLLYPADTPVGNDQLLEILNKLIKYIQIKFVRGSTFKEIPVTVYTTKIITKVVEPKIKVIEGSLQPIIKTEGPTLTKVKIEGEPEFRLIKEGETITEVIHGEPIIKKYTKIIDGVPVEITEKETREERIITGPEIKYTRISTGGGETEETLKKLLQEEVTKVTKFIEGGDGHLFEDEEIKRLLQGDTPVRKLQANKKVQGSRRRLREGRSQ

[2] = biological target: T1, periostin (Homo sapiens); test: cell_activity; conditions: BndU at all n [BndU at 6,7,9,14,16,21,22,26,28,31,34,35,44]; MDA-MB-231 adhesion to periostin-coated wells, 100 nM aptamer; control aptamer no effect

**Q.** For “ACGAGTCACACGTTGATGACTGGATGGTAGTTAAAGAGGGTGGGGCAACAA [PNDA-2]”, which Kd ([1]; BndU at all n [BndU at 6,13,14,17,21,25,28,31,32,41], Bmax 78%) is on record?
**A.** 7.41 nM

**Q.** “ACGAGTCTGGTCCTTCCTCCCTAATTGCTGTTGAGGTATCGGCTACAACAA [PNDA-4]” was tested. Which Kd ([1]; BndU at all n [BndU at 6,8,11,14,15,18,22,25,26,29,31,32,37,39,44], Bmax 90%) did it give?
**A.** 1 nM

**Q.** For “ACGAGTCTGGTCCTTCCTTTGACGACTATTGTTTGGTATCGATCAACAACAA [PNDA-1]”, which Kd ([1]; BndU at all n [BndU at 6,8,11,14,15,18,19,20,27,29,30,32,33,34,37,39,43], Bmax 92%) is on record?
**A.** 2.85 nM

**Q.** “ACGAGTTGTCGCATGTGCGGTTCAGTCTGGTCCTTCAGCACCGTACAACAA [PNDA-3]” was tested. Which Kd ([1]; BndU at all n [BndU at 6,7,9,14,16,21,22,26,28,31,34,35,44], Bmax 95%) did it give?
**A.** 1.07 nM

**Q.** And the activity [2]?
**A.** 60 % inhibition

**Q.** How did the Kd ([1]; BndU at all n of the core [BndU at 20,27,28,31,35,39,42,45,46,55], Bmax 72%, 200 mM HEPES, 510 mM NaCl, 25 mM KCl, 25 mM MgCl2, 37 C) turn out when “GATGTGAGTGTGTGACGAGTCACACGTTGATGACTGGATGGTAGTTAAAGAGGGTGGGGCAACAACAGAACAAGGAAAGG [clone 3 full length]” was run?
**A.** 0.54 nM

**Q.** “GATGTGAGTGTGTGACGAGTCTGGTCCTTCCTCCCTAATTGCTGTTGAGGTATCGGCTACAACAACAGAACAAGGAAAGG [clone 17 full length]” was tested. Which Kd ([1]; BndU at all n of the core [BndU at 20,22,25,28,29,32,36,39,40,43,45,46,51,53,58], Bmax 78%, same buffer, 37 C) did it give?
**A.** 0.63 nM

**Q.** For “GATGTGAGTGTGTGACGAGTCTGGTCCTTCCTGTATTAGATCATATCCTTAGGTATCGTCAACAACAGAACAAGGAAAGG [clone 1 full length]”, which Kd ([1]; BndU at all n of the core [BndU at 20,22,25,28,29,32,34,36,37,41,44,46,49,50,54,56,59], Bmax 80%, same buffer, 37 C) is on record?
**A.** 0.6 nM

**Q.** “GATGTGAGTGTGTGACGAGTCTGGTCCTTCCTTTGACGACTATTGTTTGGTATCGGACAACAACAACAGAACAAGGAAAGG [clone 5 full length]” was tested. Which Kd ([1]; BndU at all n of the core [BndU at 20,22,25,28,29,32,33,34,41,43,44,46,47,48,51,53], Bmax 80%, same buffer, 37 C) did it give?
**A.** 1.41 nM

**Q.** For “GATGTGAGTGTGTGACGAGTTGTCGCATGTGCGGTTCAGTCTGGTCCTTCAGCACCGTACAACAACAGAACAAGGAAAGG [clone 8 full length]”, which Kd ([1]; BndU at all n of the core [BndU at 20,21,23,28,30,35,36,40,42,45,48,49,58], Bmax 81%, same buffer, 37 C) is on record?
**A.** 1.14 nM

Source: US20150337309
